Measurements published in US6890726, “Method for selecting recombinase variants with altered specificity” (Oklahoma Medical Research Foundation).
Where a chain is given by its changes, count along the chain named.

Columns and labels:
Details in all cases: chain copies: 4
Cre E262W = Cre E262W (UniProt P06956 P06956:1-343, E262W); experiment: cell_activity; similar to E262G
Source text: (§1) The three defined Cre mutants for the amino acid position 262 were subjected to a functional test for loxK2, loxK1 and loxP recombination activity, as mentioned before. […] To conclude, this final experiment provides the necessary evidence that the E262G mutation presents the basis for the observed decrease in specificity of Cre. However, additional mutations seem to be helpful to increase the newly obtained activity further. In addition, glycine at position 262 is not the only possible residue to permit a remarkable increase in loxK2 activity.
(§2) The results of functional testing of three defined Cre mutants for position 262 compared to wt Cre are listed. All enzymes were checked on loxK2, loxP and loxK1 recombination in the selection strains BS1494, BS1493 and the control strain BS1541. In the first column the Cre candidate is indicated, in the second the allowed time for cre expression. The three following columns show the calculated percentages of Kan^R when subjecting the different Cre mutants and wt Cre to the three selection strains. The frequency of the observed Kan^R phenotype is considered as an indicator for the frequency of […] recombination: On loxK2, E262G and E262W show approximately an 10^3 fold increased Kan^R frequency compared to wt Cre, whereas E262A results in a 200 fold increase. […]

Cre R3M2 (mxoxox 2) = target: T1, Cre R3M2 (mxoxox 2) (UniProt P06956 SEQ:1-343); experiment: cell_activity; E. coli
T1 chain: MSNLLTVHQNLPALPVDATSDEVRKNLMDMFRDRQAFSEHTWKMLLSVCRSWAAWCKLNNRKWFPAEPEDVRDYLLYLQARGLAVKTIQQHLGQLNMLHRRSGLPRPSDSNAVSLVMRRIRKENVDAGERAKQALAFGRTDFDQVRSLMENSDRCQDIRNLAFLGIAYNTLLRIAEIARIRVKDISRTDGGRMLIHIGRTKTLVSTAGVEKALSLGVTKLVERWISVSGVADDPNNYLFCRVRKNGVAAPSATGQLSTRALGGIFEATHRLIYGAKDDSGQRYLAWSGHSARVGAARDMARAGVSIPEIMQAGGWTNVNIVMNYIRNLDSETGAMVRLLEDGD

Cre R3M1 (mxoxox 1) = target: T2, Cre R3M1 (mxoxox 1) (UniProt P06956 SEQ:1-343); experiment: cell_activity; E. coli
T2 chain: T1 chain with D29A, G138E, D189N, V227I, G254S

Cre R3M3 (mxoxox 3) = target: T3, Cre R3M3 (mxoxox 3) (UniProt P06956 SEQ:1-343); experiment: cell_activity; E. coli
T3 chain: T1 chain with V16I, G138E, D189N, G198S, R223Q, G254S, Q255R, P307L

Cre E262A = Cre E262A (UniProt P06956 P06956:1-343, E262A); experiment: cell_activity; E. coli
Source text: as §1, §2

B1: loxK2 (selection plasmid pBS584) (dsDNA)
DNA 1: GATACAACGTATATACCTTTCTATACGTTGTATT
DNA 2: AATACAACGTATAGAAAGGTATATACGTTGTATC
B1 gave an activity (Cre E262W) of ~1000 fold vs wt, an activity (Cre R3M2 (mxoxox 2)) of ~50 % recombination and an activity (Cre R3M1 (mxoxox 1)) of ~50 % recombination. The activity (Cre R3M3 (mxoxox 3)) was ~50 % recombination and the activity (Cre E262A) was 200 fold vs wt.
